Reference: the supplement of paper PMC9170038

Test system: MS2 coat protein
Assay: apparent KD of MS2 coat protein; designed switch direction (-1 OFF switch, 1 ON switch): -1; higher = weaker reporter binding
Procedure, shortened: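 Normalised cluster fluorescence was curve-fitted, and each design's median over clusters is its apparent KD. Before this, SNAP-549-labelled MS2 coat protein was titrated from 0.7 or 1.5 nM, doubling to 3 µM, over RNA switches transcribed on Illumina chips by stalled E. coli RNA polymerase. Titrations had no input, 200 uM small-molecule ligand, or an oligonucleotide input, and steps lasted 0.8–1.5 h (lowest) to 10–20 min (highest).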

[1] = Eterna round: R95, input ligand: microRNA oligo, concentration not stated
[2] = input ligand: microRNA oligo, concentration not stated
[3] = Eterna round: R95, input ligand: FMN 200 uM
[4] = Eterna round: R95, input ligand: none

Sequence	apparent KD of MS2 coat protein (input ligand: FMN 200 uM)	apparent KD of MS2 coat protein (input ligand: none)	apparent KD of MS2 coat protein [1]	also measured
GCUGGUCAAGGAUAUACAUGAGGAUCACCCAUGUGGUCACGUGACGAUAGUCACGAAUGUAGAAGGUGACCAGC [E3/3-C1] (Eterna round: R97, puzzle: Exclusion 3)	51.1 nM	260 nM		
GGUGCGUAUGUGAGGAUAUGCUGGUCCUUGGCUCGGCAGAAGGCACAUGAGGAUCACCCAUGUGGUGUCGUUCC [salish99_Bmod_ex4_055] (puzzle: Brourd's mod of Exclusion 4)			42.5 nM	
AAGCGACGAGGAUAUCGGUGGCUGAACAUGAGGAUCACCCAUGUGAACCGAUGGCAGUGUCGAGAAGGUGUUGAGU [Teceenla] (puzzle: Exclusion 5)			12.3 nM	
CCUCGACAUGAGGAUCACCCAUGUGAGGAUAUCAUAUUCAGACGAAAGGUGUUAGAGUUGAGAAGGCGCAUGUU [Eternabot (L1) Solution 51] (Eterna round: R97, puzzle: Exclusion 1)	44.1 nM	28.3 nM		
AAUUAUUUUUGAGGAUAUUGUGGUGAAACACCACAAGAAGGCAAGAUACACAUGAGGAUCACCCAUGUGAGCCUGAUGCUUAUG [Ex NG1 #53] (Eterna round: R96, puzzle: Exclusion NG 1)				apparent KD of MS2 coat protein [2]: 13.1 nM
CAGUACUGAGGAUAUACAUGAGGAUCACCCAUGUGUUCCAGCUGGGAAACUAGCAAAAGUAGAAGGCAGUACUG [salish99_ex3_r3_076] (Eterna round: R96, puzzle: Exclusion 3)	287 nM	21.8 nM		apparent KD of MS2 coat protein [2]: 21.4 nM
ACUUAUUGAGGAUAUACAGAAAAUUACAUGAGGAUCACCCAUGUUCUUCAAUGUAUAUAUGUAGAAGGCAGAAUAU [Mat - Exclusion 5 - JL Mod - D19] (Eterna round: R97, puzzle: Exclusion 5)	31.1 nM	16.5 nM		
AAGAAACAUGAGGAUCACCCAUGUGAGGAUAUGACUAAGAAAAGAAAAGAAAGAAGAGUCAGAAGGCACAAAGG [salish99-ex1_r3_068] (puzzle: Exclusion 1)			128 nM	apparent KD of MS2 coat protein [3]: 215 nM; apparent KD of MS2 coat protein [4]: 189 nM
AGACAGUCAGGAUAUACAUGAGGAUCACCCAUGUUGAGAUGAGAAAGGGCAGGAAGAGGUAGAAGGGACAAGAG [JR_Exclu3_Sub036] (puzzle: Exclusion 3)			20.8 nM	apparent KD of MS2 coat protein [3]: 25 nM; apparent KD of MS2 coat protein [4]: 24.8 nM
GACCGGACGUGGUCAGGUAACAUGAGGAUCACCCAUGUAGGUCUAAGAACAAGCCUUUUGUACGCUCGUCUUAUAUU [JR_SV3TOV1_Sub060] (puzzle: Sensor v3, turn-off variant 1)			46.8 nM	apparent KD of MS2 coat protein [3]: 46.1 nM; apparent KD of MS2 coat protein [4]: 55.8 nM
AUCCUGAGGCUUUGCUUUAGGCGUACAUGAGGAUCACCCAUGUAGGAUAUGGUAGGCUUUGCUUACCAGAAGGACAUUAUGAUC [JL EXNG3 1.19] (Eterna round: R96, puzzle: Exclusion NG 3)	243 nM	43 nM		apparent KD of MS2 coat protein [2]: 44.1 nM
UUGUUAUAUGUAGGAUAUGCGUAUUAUUAUUAUGCAGAAGGACAUGAGGAUCACCCAUGUAUAUUAUUAUUAUAUAUUAUAUAU [Title] (Eterna round: R96, puzzle: Exclusion NG 1)				apparent KD of MS2 coat protein [2]: 21.9 nM
AAUAAGCGAGGAUAUACACCCGGUAACCGGGAACGGGCGAGACAUGAGGAUCACCCAUGUAGAAGGCGCGUCAA [Ralaente] (Eterna round: R97, puzzle: Exclusion 2)	182 nM	161 nM		
GGUUUGCAGCAGGAUAUCCAUCCGCGGUAUGGUGGAGAAGGGCUGACAUGAGGAUCACCCAUGUGCGUCCUAGG [salish99_ex6_r4_017] (Eterna round: R97, puzzle: Exclusion 6)	58.6 nM	27.6 nM		
